Test results reported in PMC9835228 (Journal of Translational Medicine, 2023).
Where “and” joins values, the source holds several entries; their conditions need not be identical. Identical values can stand only once. Like-named read-outs stand apart in the source and are kept apart here. Residues, ends and D or L forms follow the SMILES beside them.

How the values were obtained:
[1] = target: HER2 on SK-BR-3 cells (HER2-positive human breast cancer cell line) (human (endogenous in SK-BR-3)) (UniProt P04626)
[2] = test system: SK-BR-3 tumors (HER2-positive); assay: Small-animal nanoScan SPECT/CT imaging in the SK-BR-3 tumor model; format: in vivo, female NOD SCID mice
Protocol: At 0.5, 1 and 2 h p.i., the mice were anesthetized by inhalation of 2% isoflurane and imaged using a nanoScan SPECT/CT system (Mediso Inc., Hungary) following a standard protocol. Briefly, the small-animal SPECT images were acquired with the technetium-99 m parameters (peak 140 keV with 20% width, frame time 25 s), and CT images were acquired with default settings (50 kVp, 0.67 mA, and rotation 210°, exposure time 300 ms). All SPECT/CT images were reconstructed and further analyzed by Fusion software (Mediso Inc., Hungary), including drawing volumes of interest on tumors and major organs as well as calculating the tumor uptake (%ID/cc) accordingly. […] Small-animal imaging of the monomer tracer ^99mTc-HP-rk was also conducted as a control.

[3] = Dosimetry estimation (OLINDA/EXM); design: species or system human; conditions: for effective radiation dose to the body: 11.1 MBq/kg
Protocol: The dosimetry calculation was performed according to the European Association of Nuclear Medicine Dosimetry Guidance and calculated using OLINDA/EXM (version 1.1; Vanderbilt University). The radiation effective dose (mSv/MBq) of the main organs of the human body was estimated from the biodistribution data of the SK-BR-3 tumor models (Additional file 1: Table S1).
The radiation effective dose (mSv/MBq) of the main organs of the human body was estimated from the biodistribution data of the SK-BR-3 tumor model (Table S1).

[4] = radio-HPLC (Fig. 1B)
[5] = test system: SK-BR-3 tumor (HER2-positive); conditions: 0.5, 1 and 2 h p.i.; 0.37 MBq i.v.; 4 mice/group
Protocol: (§1) The animals were randomly chosen for in vivo assays when the tumor size reached 100–150 mm^3 (1–2 weeks after inoculation).
(§2) Each mouse was injected with 0.37 MBq (~ 0.03 µg) of tracer to evaluate the distribution of the probe in tumors and major organs (4 mice/group). The mice were sacrificed and dissected at 0.5, 1 and 2 h p.i. Blood, tumor, liver, kidney and other major organs were collected and weighed, and their radioactivity was counted in a Wallac 1480 γ-counter (Perkin-Elmer, Waltham, MA). […] All biodistribution data are presented as the percentage of injected dose per gram of tissue (%ID/g).

[6] = test system: HER2 expression in breast tumors
Protocol: (§3) The wrist or elbow on the same side as the healthy breast was selected for injection. […] On PET images, the volumes of interest (VOIs) were drawn over tumors using a 40% threshold, and the software automatically obtained the radioactivity concentration and the maximum and the mean standardized uptake values (SUVmax and SUVmean, respectively). T/B ratios were calculated from SUVmean values for further analysis. The contralateral breast tissue was considered the background for calculations. For semiquantitative analyses of SPECT images, the same VOI method as above was adopted to obtain the maximum and the average count values (Countsmax and Countsavg, respectively) of the breast tumors. The Countsavg value was compared between the tumor region and the contralateral region to obtain the T/B ratio. Calculations were performed using SPSS 23.0 software (IBM SPSS, Chicago, IL, USA) and GraphPad Prism 8 (GraphPad Software, San Diego, CA 92,108). After surgery, HER2 expression status was evaluated by IHC in tumor pathological sections of all 34 patients. For patients with an IHC score of HER2 (2 +), FISH was further performed.
(§4) Quantitative data were expressed as the mean ± SD. Statistical analysis of image parameters and biodistribution was performed with Student’s t test in Prism 7.0 (GraphPad Software, Inc., USA). P < 0.05 was considered statistically significant. Correlation analysis of the SUV data of clinical images and the IHC results was performed with SPSS Statistics 23.0 software (IBM SPSS, USA). The correlation between the SPECT T/B ratio and HER2 status was evaluated by Wilcoxon’s rank sum test. Spearman’s rank correlation analysis was performed on the SPECT T/B ratio and the immunoreactivity score. ROC curve analysis was performed to determine an optimal cutoff value for detecting HER2-positive (2 + , 3 +) breast cancer and to compare the diagnostic performance of different methods.

[7] = 1.85 MBq i.v., blood 1-240 min p.i., γ-counter, seven mice, fitted in Prism 7.0
Protocol: Blood was drawn through the orbit of the mouse at 1, 3, 8, 15, 30, 60, 90, 120, 180, and 240 min p.i. The radioactivity was counted in a γ-counter, and the percentage injected dose per gram of blood (%ID/g) at each time point was calculated. The slow half-life and fast half-life were analyzed and calculated by Prism 7.0.

[8] = 74 MBq i.v., n = 5
Protocol: Ten 4-week-old female ICR mice were randomly divided into the experimental and control groups. The mice were numbered, weighed and photographed. […] The mice in the control group were injected with the same volume of saline. After 120 h, the mice were photographed again, their body weight was recorded, and the behavioral differences were observed. After the mice were sacrificed, they were dissected to observe the morphological differences in the organs.

in vivo [9] = conditions: female, NOD SCID, mouse, tumor (SK-BR-3 xenograft), iv, 0.37 MBq, total radioactivity
Protocol: as §1, §2

in vivo [10] = conditions: female, NOD SCID, mouse, tumor (MCF7 xenograft), 0.37 MBq, total radioactivity
Protocol: as §1, §2

in vivo [11] = conditions: female, NOD SCID, mouse, tumor (MDA-MB-468 xenograft), 0.37 MBq, total radioactivity
Protocol: as §1, §2

clinical = conditions: female, human, in vivo, iv, 11.1 MBq per kilogram body weight, total radioactivity, mean ± SD
Protocol: as §3, §4

[12] = In vivo metabolic stability (urine, radio-HPLC); conditions: ~37 MBq i.v., mouse urine collected p.i. (2 h, b63; 0.5 h for ^99mTc-H10F in Fig. S3)
HER2 protein [13] = target: HER2 protein (Homo sapiens, UniProt P04626); assay: Surface plasmon resonance of peptides toward HER2 protein; format: binding
HER2 protein [14] = target: T1, HER2 protein (human, UniProt P04626 23-652); assay: SPR; Plexera PlexArray HT; sulfhydryl peptides printed on a bare gold chip through the cysteine thiol, blocked with 5% nonfat milk; protein flowed over in PBS (HER2 at 70.4, 35.2, 17.6 and 8.8 nM); regeneration 0.5% H3PO4; EGFR, HER3 and HER4 as controls with the same procedure; conditions: both partners purified
T1 construct: human epidermal growth factor receptor 2 (HER2), soluble protein used as SPR analyte; also called human epidermal growth factor receptor 2

[15] = Female, OLINDA/EXM 1.1, from mouse SK-BR-3 biodistribution
[16] = Male, OLINDA/EXM 1.1, from mouse SK-BR-3 biodistribution

## ^99mTc-HP-Ark2, ^99mTc-{HYNIC-PEG4-Glu[8-aminooctanoic-D(RNWELRLK)]2/Tricine/TPPTS} (peptide)
[1]
  tumor uptake in the SK-BR-3 tumor model at 0.5 h p.i. (biodistribution, n = 4): 3.99 %ID/g
  tumor uptake in the SK-BR-3 tumor model at 0.5 h p.i. with coinjection of excess cold rk peptide (blocking group, n = 4): 1.42 %ID/g

## CC(C)C[C@@H](NC(=O)[C@@H](CCCNC(=N)N)NC(=O)[C@@H](CC(C)C)NC(=O)[C@@H](CCC(=O)O)NC(=O)[C@@H](Cc1c[nH]c2ccccc12)NC(=O)[C@@H](CC(N)=O)NC(=O)[C@@H](CCCNC(=N)N)NC(=O)CCCCCCCNC(=O)CC[C@H](NC(=O)CCOCCOCCOCCOCCNC(=O)c1ccc(NN=Cc2ccccc2S(=O)(=O)O)nc1)C(=O)NCCCCCCCC(=O)N[C@H](CCCNC(=N)N)C(=O)N[C@H](CC(N)=O)C(=O)N[C@H](Cc1c[nH]c2ccccc12)C(=O)N[C@H](CCC(=O)O)C(=O)N[C@H](CC(C)C)C(=O)N[C@H](CCCNC(=N)N)C(=O)N[C@H](CC(C)C)C(=O)N[C@H](CCCCN)C(=O)O)C(=O)N[C@H](CCCCN)C(=O)O [^99mTc-HP-Ark2, metal not drawn]
[2]; SK-BR-3 model, 0.5 h p.i.
  imaging intensity in tumors compared with monomer tracer: stronger than that of ^99mTc-HP-rk
[2]; blocking dose 25 mg/kg rk, 0.5 h p.i.
  tumor uptake on imaging with coinjected cold rk peptide: significantly blocked tumor uptake
[2]; blocking dose 30 mg/kg trastuzumab, 0.5 h p.i.
  tumor uptake on imaging with coinjected cold trastuzumab: did not block tumor uptake
[2]; ~37 MBq i.v., 0.5, 1 and 2 h p.i., subcutaneous or in situ, tumors as small as ~20 mm^3
  tumor visualization by SPECT/CT: clearly visualized
[3]; 50 kg females
  effective radiation dose to the body: ~5.72 mSv
[3]; 65 kg males
  effective radiation dose to the body: approximately 6.62 mSv
[3]; [15]
  Effective Dose Equivalent, Adrenals: 5.36E-04 mSv/MBq
  Effective Dose Equivalent, Brain: 0.00E+00 mSv/MBq
  Effective Dose Equivalent, Breasts: 4.44E-05 mSv/MBq
  Effective Dose Equivalent, Gallbladder Wall: 2.60E-04 mSv/MBq
  Effective Dose Equivalent, Heart Wall: 0.00E+00 mSv/MBq
  Effective Dose Equivalent, Kidneys: 7.87E-03 mSv/MBq
  Effective Dose Equivalent, LLI Wall: 0.00E+00 mSv/MBq
  Effective Dose Equivalent, Liver: 0.00E+00 mSv/MBq
  Effective Dose Equivalent, Lungs: 1.90E-04 mSv/MBq
  Effective Dose Equivalent, Muscle: 0.00E+00 mSv/MBq
  Effective Dose Equivalent, Osteogenic Cells: 6.07E-05 mSv/MBq
  Effective Dose Equivalent, Ovaries: 2.49E-04 mSv/MBq
  Effective Dose Equivalent, Pancreas: 3.43E-04 mSv/MBq
  Effective Dose Equivalent, Red Marrow: 2.27E-04 mSv/MBq
  Effective Dose Equivalent, Skin: 0.00E+00 mSv/MBq
  Effective Dose Equivalent, Small Intestine: 0.00E+00 mSv/MBq
  Effective Dose Equivalent, Spleen: 4.89E-04 mSv/MBq
  Effective Dose Equivalent, Stomach Wall: 0.00E+00 mSv/MBq
  Effective Dose Equivalent, Thymus: 0.00E+00 mSv/MBq
  Effective Dose Equivalent, Thyroid: 2.78E-06 mSv/MBq
  Effective Dose Equivalent, ULI Wall: 0.00E+00 mSv/MBq
  Effective Dose Equivalent, Urinary Bladder Wall: 0.00E+00 mSv/MBq
  Effective Dose Equivalent, Uterus: 0.00E+00 mSv/MBq
[3]; [16]
  Effective Dose Equivalent, Adrenals: 4.04E-04 mSv/MBq
  Effective Dose Equivalent, Brain: 0.00E+00 mSv/MBq
  Effective Dose Equivalent, Breasts: 3.64E-05 mSv/MBq
  Effective Dose Equivalent, Gallbladder Wall: 2.31E-04 mSv/MBq
  Effective Dose Equivalent, Heart Wall: 0.00E+00 mSv/MBq
  Effective Dose Equivalent, Kidneys: 7.26E-03 mSv/MBq
  Effective Dose Equivalent, LLI Wall: 0.00E+00 mSv/MBq
  Effective Dose Equivalent, Liver: 0.00E+00 mSv/MBq
  Effective Dose Equivalent, Lungs: 1.38E-04 mSv/MBq
  Effective Dose Equivalent, Muscle: 0.00E+00 mSv/MBq
  Effective Dose Equivalent, Osteogenic Cells: 4.73E-05 mSv/MBq
  Effective Dose Equivalent, Pancreas: 2.81E-04 mSv/MBq
  Effective Dose Equivalent, Red Marrow: 1.94E-04 mSv/MBq
  Effective Dose Equivalent, Skin: 0.00E+00 mSv/MBq
  Effective Dose Equivalent, Small Intestine: 0.00E+00 mSv/MBq
  Effective Dose Equivalent, Spleen: 3.96E-04 mSv/MBq
  Effective Dose Equivalent, Stomach Wall: 0.00E+00 mSv/MBq
  Effective Dose Equivalent, Testes: 0.00E+00 mSv/MBq
  Effective Dose Equivalent, Thymus: 0.00E+00 mSv/MBq
  Effective Dose Equivalent, Thyroid: 2.27E-06 mSv/MBq
  Effective Dose Equivalent, ULI Wall: 0.00E+00 mSv/MBq
  Effective Dose Equivalent, Urinary Bladder Wall: 0.00E+00 mSv/MBq
  Effective Dose Equivalent, Uterus: 0.00E+00 mSv/MBq
[4]
  in vitro stability: excellent in vitro and in vivo stability
[5]
  tumor uptake compared with other organs: higher tumor uptake than uptake in other organs (except for kidneys)
[6]; 34 patients, ~11.1 MBq/kg i.v.
  adverse events related to tracer administration: No adverse events
[6]; patients with HER2-positive tumors and ipsilateral lymph node metastases (Nos. 4, 5, 7, 15, 24, 29)
  detection of metastatic lymph nodes: all 6 patients
[6]; quantified biodistribution from SPECT/CT, n = 34 (Fig. S10)
  kidney uptake in patients: high uptake
[7]
  fast half-life in blood: 3.12 min
  slow half-life in blood: 32.45 min
[8]; 120 h
  body weight after high-dose injection: did not decrease
  organ morphology after dissection: no abnormal organs
[8]; 120 h after injection
  behavior after high-dose injection: no abnormal behavior
In vivo [9]
  tissue uptake at 0.5 h: 3.99 ± 0.15 %ID/g
In vivo [10]
  tissue uptake at 0.5 h: 1.44 ± 0.08 %ID/g
In vivo [11]
  tissue uptake at 0.5 h: 1.08 ± 0.06 %ID/g
clinical; T/B ratio of HER2-negative tumors, IHC (2+) plus FISH+ or IHC (3+) criterion, n = 24
  tissue to tissue ratio at 0.5 h: 1.54 ± 1.03
clinical; T/B ratio of HER2-negative tumors, negative = IHC (0/1+), n = 17
  tissue to tissue ratio at 0.5 h: 1.16 ± 0.29
clinical; T/B ratio of HER2-positive tumors, positive = IHC (2+) or (3+), n = 19
  tissue to tissue ratio at 0.5 h: 2.49 ± 1.13
clinical; T/B ratio of HER2-positive tumors, positive = IHC (2+) plus FISH+ or IHC (3+), n = 12
  tissue to tissue ratio at 0.5 h: 2.5 ± 0.88
[12]
  in vivo metabolic stability: excellent in vitro and in vivo stability

## CC(C)C[C@@H](NC(=O)[C@@H](CCCNC(=N)N)NC(=O)[C@@H](CC(C)C)NC(=O)[C@@H](CCC(=O)O)NC(=O)[C@@H](Cc1c[nH]c2ccccc12)NC(=O)[C@@H](CC(N)=O)NC(=O)[C@@H](CCCNC(=N)N)NC(=O)CCCCCCCNC(=O)CC[C@H](N)C(=O)NCCCCCCCC(=O)N[C@H](CCCNC(=N)N)C(=O)N[C@H](CC(N)=O)C(=O)N[C@H](Cc1c[nH]c2ccccc12)C(=O)N[C@H](CCC(=O)O)C(=O)N[C@H](CC(C)C)C(=O)N[C@H](CCCNC(=N)N)C(=O)N[C@H](CC(C)C)C(=O)N[C@H](CCCCN)C(=O)O)C(=O)N[C@H](CCCCN)C(=O)O [Ark2]
HER2 protein [13]; read-out: dissociation constant (KD) to HER2 protein, SPR, Plexera PlexArray HT, Cys-peptides printed on gold chip, HER2 protein 8.8-70.4 nM in PBS, from fitted association/dissociation rates
  Kd: 10 nM

## CC(C)C[C@H](NC(=O)[C@H](CCCNC(=N)N)NC(=O)[C@H](CC(C)C)NC(=O)[C@@H](N)CCCCN)C(=O)N[C@@H](CCC(=O)O)C(=O)N[C@@H](Cc1c[nH]c2ccccc12)C(=O)N[C@@H](CC(N)=O)C(=O)N[C@@H](CCCNC(=N)N)C(=O)O [H10F] (H-KLRLEWNR-OH)
HER2 protein [13]
  Kd: 70 nM and 70.2 nM

## CC(C)C[C@@H](NC(=O)[C@@H](CCCNC(=N)N)NC(=O)[C@@H](CC(C)C)NC(=O)[C@@H](CCC(=O)O)NC(=O)[C@@H](Cc1c[nH]c2ccccc12)NC(=O)[C@@H](CC(N)=O)NC(=O)[C@@H](CCCNC(=N)N)NC(=O)CCOCCOCCOCCOCCNC(=O)c1ccc(NN=Cc2ccccc2S(=O)(=O)O)nc1)C(=O)N[C@H](CCCCN)C(=O)O [^99mTc-HP-rk, metal not drawn]
In vivo [9]
  tissue uptake at 0.5 h: 1.94 ± 0.12 %ID/g

B1: Cys-H10F (sulfhydryl form of the L-peptide H10F, KLRLEWNR) (peptide)
peptide: KLRLEWNR
notes: HER2-targeting L-peptide H10F; also called parental L-peptide; source: synthetic peptide, bought: GL Biochem Ltd
HER2 protein [14]
  Kd: 70.2 nM
